According to patent publication US6774212 (Bristol-Myers Squibb, dated 2004):
Square brackets hold non-standard residues; d marks the D form. Ends that are not written are not given here. * marks the point of attachment. boroAlg = alpha-aminoboronic acid analogue of L-2-amino-4-pentenoic acid (1-amino-3-butenylboronic acid, -B(OH)2 in place of -COOH), C=CC[C@H](N*)B(O)O

Target: T1, HCV NS3 protease catalytic domain (amino acids 1 to 192), genotype 1a (Hepatitis C virus, genotype 1a, UniProt P26664 1027-1218)
T1 construct: domain: NS3 protease catalytic domain (amino acids 1 to 192); Expressed in E. coli BL21(DE3) and purified to >95%; also called HCV NS3 1a protease; Hepatitis C Virus NS3 protease
Assay: active-site titration of NS3 protease; linear plots of Activity vs. [inhibitor], protease concentration from the x-intercept

T1 sequence (P26664 1027-1218): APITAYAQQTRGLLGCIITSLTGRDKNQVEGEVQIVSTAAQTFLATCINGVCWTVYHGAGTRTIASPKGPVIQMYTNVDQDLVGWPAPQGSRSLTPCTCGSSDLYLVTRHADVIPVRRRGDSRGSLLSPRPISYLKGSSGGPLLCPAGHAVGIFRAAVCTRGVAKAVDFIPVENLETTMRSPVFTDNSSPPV

B1: H-Asp-Glu-Val-Val-Pro-boroAlg-OH (peptide)
peptide: H-DEVVP[boroAlg]
notes: Peptide boronic acid used as titrant to determine the protease concentration
- binding result: binds
